The nanobody polyreactivity screen of Harvey et al. (2022)

Test: yeast display, Sf9 membrane polyspecificity reagent, FACS + sequencing; frameworks hold sequencing errors
Method in brief: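 Synthetic nanobody libraries on Saccharomyces cerevisiae BJ5465 were galactose-induced for 36–48 hours, stained 1 hour at 4 °C with 10% biotinylated, detergent-solubilized Sf9 membrane reagent and enriched on streptavidin microbeads. FACS then separated cells into low and high (top ~1%) gates by anti-HA (expression) and streptavidin (reagent binding) fluorescence. Genes were colony-PCR amplified, MiSeq 2 × 250 sequenced and CDR-length filtered. A clone's polyreactivity label is that of its gate of origin.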
With “QVQLVESGGGLVQAGGSLRLSCAASGRIFVANAMGWYRQAPGKERELVAVISGSGGRTYYADSVKGRFTISRDNAKNTVYLQMNSLKPEDTAVYYCAAQKWQQGITAYEYWGQGTQVTVSS” the “polyreactivity (PSR sort gate)” value was “high polyreactivity”.
With “QVQLVDSGGGLVQAGGSLRLSCAASGRTSRRYAMGWYRQEPGKERELVAAIRGSGGSTYYADSVKGRFTISRDNAKNTVYLQMNSLKPEDTAVYYCAARSPRASGNSDYWGQGTQVTVSS” the “polyreactivity (PSR sort gate)” value was “high polyreactivity”.
With “QVQLVESGGGLVQAGGSHRLRCAAYGFIFIYAMGRYRQAPGKQRELVASIESGVSTDYADSVKGRFTISRDNAKNSVYFQMNSLKQEDTAVYYCAADQWSSLNYDYWGQGSQVTVSS” the “polyreactivity (PSR sort gate)” value was “low polyreactivity”.
In the case of “QVQLVESGGGLVQAGGSLRLSCAASGLTFPYNVMGWYRQAPGKERELVASITSVGTTDYADSVKGRFTISRDNAKNTVYLQMNSLNPEDTAVYYCAADVTLFYWWYGKEDYDYWGQGTEVTVSS”, the “polyreactivity (PSR sort gate)” value is reported as “low polyreactivity”.
For “QVQLVESGGGLVQAGGSLRLSCAASGRIFLKYTMGWYRQAPGKERELVAAISRGGSTYYADSVKGRFTISRDNAKNTVYLQMNSLKPEDTAVYYCAATSYRRTGYNYWGQGTQVTVSS”, the “polyreactivity (PSR sort gate)” value was “high polyreactivity”.
With “QVQLVESWGGLVQAGGSLRLSCSAYGYTFTLTPMGWSRQAPGKERELVAAISRSGGSTYYADSVKGRFTISRDNAKNTVYLQMISLKPEDTAVYYCDADGYSGYDYWGQGTLVTVSS” the “polyreactivity (PSR sort gate)” value was “low polyreactivity”.
With “QVQLVESGGGLVQAGGSLRLSCAASGRIFYQNAMGWYRQAPGKARELVADSASGGSTYYADSVKGRFTISRDNAKNTVYLQMNSLKPEDPAVYYCATAVLYGDGWYYYWGQGTQVTVSS” the “polyreactivity (PSR sort gate)” value was “low polyreactivity”.
For “QVQHVESRGGLVQAGGSLRLSCAASGRTFVRYAMGWYRQAPGKERELVAAISGDGASTYYADSVKGRFTISRDNAMNTVYLQMNSLKPEDTAVYYCNARSIRRYYYPDYDYWGQGTQVTVSS”, the “polyreactivity (PSR sort gate)” value was “high polyreactivity”.
For “QVQLVESGGGLVQAGGSLRLSCAASVSTFSYNYMGWYRQAPRKERELDAAISSGGSTKYADSVKGRFRISRDNAKNTVYLQMNSLKPEDTAVYYCIKDYPQNPLPASSYYLYDYWGQGTQVTVSS”, the “polyreactivity (PSR sort gate)” value was “high polyreactivity”.
In the case of “QVQLVESGGGLVQAGGSLRLSCAASGRIFQYYVMGWYRQAPGKERELVAAITSGGGTKYADSVKGRFTISRDNAKNTVYLQMNSLKPEDTAVYYCAAAWFDQYSRYDYWGQGTQVTVSS”, the “polyreactivity (PSR sort gate)” value is reported as “low polyreactivity”.
In the case of “QFQLVESGGGVVQAGGSLRLSCAASGYTFYIYARGWYRQAPWKERELVAAISWTDGSTYYADSVKGRFTISRDNAKNTVYLQMNSLKPEDTAVYYCAKTSLYAGAKEYDYWGQGTQVTVSS”, the “polyreactivity (PSR sort gate)” value is reported as “low polyreactivity”.
In the case of “QVQLVESGGGLVQAGGSLRLICAASGSILGTYAMGWYRQAPGNDRELVAAISSSGRTSYADSVKGRFTISRDNAKNTVYLQMNSLKPEETAVYYCNASNYIFLINDPDAAPWLYDYWGQGSQVTVSS”, the “polyreactivity (PSR sort gate)” value is reported as “low polyreactivity”.
With “QVQLVESGGGLLQAGGSLRLSCAASGRTFYSNAMGWYRQAPGKERELVATISSGGSTNYADSVKGRFTISRDNAKNTVYLQMNSLKPEDTAVYYCAKRTHQFGVSRSYNTYYYWGQGTQVTVSS” the “polyreactivity (PSR sort gate)” value was “low polyreactivity”.
In the case of “QVQLVESGGGLVQAGGSLRLSCAASGRIFGAYAMGWYRQAPGKERELVAAISSRGGNTYYADSVKGRFTISRDNAKNTVYLQMNSLKPEDTAVYYCAARHDKRRQYYVGQSDFDYWGQGTQVTVSS”, the “polyreactivity (PSR sort gate)” value is reported as “low polyreactivity”.
For “QVQLVESGGGLVQAGGSLRLSCAASGSIFSFNVMGWYRQAPGKERELVATITGGGSTNYADSVKGRFTISRDNAKNTVYLQMNSLIPEDTAVYYCAARPVNGGILEYWGQGTQVTVSS”, the “polyreactivity (PSR sort gate)” value was “low polyreactivity”.
With “QVQLVESGGGLVQAGGSLRLSCAASGFTFLINAMGWYRQAPGKERELVAAIRSGGSTNYADSVKGRFTISRDNAKNTVYFQMNSLKPEDTAVYYCAARRYYPYKYRYGYWGQGTQVTVSS” the “polyreactivity (PSR sort gate)” value was “high polyreactivity”.
For “QVQLVESVGGLVQAGGSLRLSCAASVRTCRSNAMGWYRKAPGKEMEFVAAISISGTRTNYADSVKGRFTISRDNAKITVYLQMNSLKPEDTAVYYCARRYQIYDFFYHDLYDYWGQGTQVTVSS”, the “polyreactivity (PSR sort gate)” value was “low polyreactivity”.
In the case of “QVQLVESAAGLVQAGGSLRLSCAASGRISHRNAMGWSRQAPGKERELVAAITSGGSTNYADSVKGRFTISRDNAKNTVYLQMNSLKPEDTAVYYCAARRLPSTWYIYWGQGTQVTVSS”, the “polyreactivity (PSR sort gate)” value is reported as “low polyreactivity”.
For “QVQLVESVGGLVQAGGSLRLSCAASGFIFWDYAMGWYRQAPGKERELVAAISDSGGDTYYADSVKGRFTISRDIAKNTVYLQMNSLKPEDTAVYYCAADVELWVFRGQQYDYWGQGTQVTVSS”, the “polyreactivity (PSR sort gate)” value was “low polyreactivity”.
For “QVQLVESVGGLVQAGGSLRLSCAASGRTFRTYTMGWYRQAPGKERGLVAAITSTGSTYYADSVKGRFTISRDNAKNTVYLQMNSLKPEDTAVYYCNVVRRLRPYRGTGPNLEYYYWGQGTQVTVSS”, the “polyreactivity (PSR sort gate)” value was “high polyreactivity”.
For “QVQLVESGGGLVQAGGSLRLSCAASGSIFTWYAMGWSRQAPGKERELVAAITRGGSTYADSVKGRFTISRDNANYTVYLQMNSLKPADTAVYYCNAVYGVYDFNYWGQGTQVTVSS”, the “polyreactivity (PSR sort gate)” value was “low polyreactivity”.
With “QVQLVESGGGLVQAGGSLRLSCAASGFIFKGYAMGWYRQAPGKERELVAAISKGGGNTYYADSVMGRFSISRDNAKNTVYLQMNSLKPEDTAVYYCAAVPTRYRSYTYTYGGYNYWGQGTQVTVSS” the “polyreactivity (PSR sort gate)” value was “high polyreactivity”.
With “QVQLVESGGGLVQAGGSLRLSCAASGRIFRYYAMGWYRQAPGKETELVAAINWSGGSTYYADSVKGRFTISRDNAKNTVYLQMNSLKPEDTAVYYCNRRAYIRYDSSSLDYWGQGTQVTVSS” the “polyreactivity (PSR sort gate)” value was “low polyreactivity”.
In the case of “QVQLVESGGGLVQAGGSLRLSCAASGRTFSYYAMGWYRQAPGKERELVAVITSSGGSTSYADSVKGRFTISRDNAKNTVYLQMNSLKPEDTAVYYCAADPLAVSWAYYLFGVDYWGQGTQVTVSS”, the “polyreactivity (PSR sort gate)” value is reported as “high polyreactivity”.
For “QVQLVESGGGLVQAGGSLRLSCAASGRTFGYYTMGWYRQAPGKERELVARINYIGSSTYYADSVKGRFTISRDNAKNTVYLHMNSLKPEDTAVYYSNADNARGRSGVRRYYWGQGTQVTVSS”, the “polyreactivity (PSR sort gate)” value was “high polyreactivity”.
For “QVHLVESGGGLVQAGGSLRLSCAASGFTFPIYAIGWYRQAPGKERELVAAITTRGGSTYYADSVKGRFTISRDNAKNTVYLQMNSLKPEDTAVYYCNNRGRRTDYDYWGQGTQVTVSS”, the “polyreactivity (PSR sort gate)” value was “high polyreactivity”.
For “QVQLVESGGGLVQAGGSLRLSCAASGITFPYNAMGWYRQAPGKERELVADISSSGGITYYADSVKGRFTISRDNAKNTVYLQMNSLKPEDTAVYYCAVRKYGYGFEMDYWGQGTQVTVSS”, the “polyreactivity (PSR sort gate)” value was “low polyreactivity”.
In the case of “QVQLVESGGGLVQAGGSLRLSCAASGITFVYYTMGWYRQAPGKERELVASITWDGRSTYYADSVKGRFTISRDNAKNTVYLQMNSLKPEDTAVYYCNRDRVSGGKYNYWGQGTQVTVSS”, the “polyreactivity (PSR sort gate)” value is reported as “low polyreactivity”.
For “QVQLVESGVGLVQAGGSLRLSCAASGRIISRYAMGWYRQAPGKERELDAAISRRGGSTYYADSVKGRFTISRDNAKNTVYLQMNSLKPEDTAVYYCNADTGNRGYDYWGQGTQVTVSS”, the “polyreactivity (PSR sort gate)” value was “high polyreactivity”.
With “QVQLVESGGGLVQAGGSLRLSCPASGRTFKWYAMGWYRQAPGKERELVAAISTGGRTHYADSVKGRFTISRDNSKNTVYLQMNSLKPEDTAVYYCNAADDLADPERTENHKRDYWGQGTQVTVSS” the “polyreactivity (PSR sort gate)” value was “high polyreactivity”.
In the case of “QVQLVESGGGLVQAGGSLRLICAASGFTIWFNAMGWYRQAPWKERDLVATIRGSGGTTYYAYSVKGRFTISRDNAKNTVYLQMNSLKPEDTAVYYCAAEGSFRKFDYCGQGTQVTVSS”, the “polyreactivity (PSR sort gate)” value is reported as “low polyreactivity”.
With “QVQLVESGGGLVQAGGSLRLSCAASGSTFRRNAMGGYRQAPGKERELVAAITSTDSTYYADSVKGRFTISRDNAKNSVYLQMNSLKPEDTAVYYCAKGYWWGGEMGYWGQGTQVTVSS” the “polyreactivity (PSR sort gate)” value was “low polyreactivity”.
With “QVQLVESGGGLVQAGGSLRLSCAASGSTFTYNAMGWYRPAPGKERELVAAISYGGGRTYYADSVKGRFTISRDNAKNTVYLQMNSLKPEDTAVYYCAAGRSIGALYYGMDYWGQGTQVTVSS” the “polyreactivity (PSR sort gate)” value was “high polyreactivity”.
For “QVQLEESGGGFVQAGGSLRLSCAPSGTTFKSNAMGWYRQAPGKERELVAAINSGTSTYYADSVKGRFTISRDNAKNTVYLQMNSLKPEDTAVYYCSADGIWGEYYYSELGDYDYWGLGTQVTVSS”, the “polyreactivity (PSR sort gate)” value was “low polyreactivity”.
With “QVQHVESGGGLVQAGGSLRLSCAASGSILGWYAMGWYRQAPGKERELDAAITTAGDSTYYADSVKGRFTISRDNAKNTVYLPLNSLKPEDTAVYYCATRYQVRRGSGPSYDYWGQGTQVTVSS” the “polyreactivity (PSR sort gate)” value was “high polyreactivity”.
For “QVQLVESGGGLVQAGGSLRLSCAASGSIFVYYAMGWYRQAPGKERELVAAITRRGGSTYYADSVKGRFTISRDNAKNTVYLQMNSLKPEDTAVYYCNSYTSRQYGLEYWGQGTQVSVSS”, the “polyreactivity (PSR sort gate)” value was “high polyreactivity”.
In the case of “QVQLVESGGGLVQAGGSLRLSCAASGRTIDSYAMGWYRQAPGKERELVAAISKSGGRTYYADSVKGRFTISRDNAKNTVYLQMNSLKPEDTAVYYCNAQRVAYWRVAYDYWGQGTQVTVSS”, the “polyreactivity (PSR sort gate)” value is reported as “high polyreactivity”.
In the case of “QVQLVESGGGLVHAGGSLRLSCAASGSTFIRNAMGWYRQAPGKERELVAAISSSGGRTYYADSVKGRFTISRDNAKNTVYLQMNSLKPEDTAVYYCAARYVPPWGRRYYYWGQGTQVTVSS”, the “polyreactivity (PSR sort gate)” value is reported as “high polyreactivity”.
For “QVQLVESGGGLVQAGGSLRLSCAASGFTFGTYDMGWYRQAPGKERELVAAIDWGGGSTYYADSVKGRFTISRDNAKNTFYLQMNSLKTEDTAFYYCAADGPGDYLTLEWYWFTYYYWGQGTQVTVTS”, the “polyreactivity (PSR sort gate)” value was “high polyreactivity”.
In the case of “QVQLAESGGGLVQAGGSLRLSCAASGRTFSQYGMGWYRQAPGKERELVARIRRSGGSTYYADSVKGRFTISRDNAKNTVYLQMNSLKPEDTAVYYCAARYYWFGQYQYNYWGQGTQVTVSS”, the “polyreactivity (PSR sort gate)” value is reported as “high polyreactivity”.
